# Experimental data reported in patent US8217137B2, “Fullerene-based amino acids” (William Marsh Rice University, priority 2004, dated 2012).
# Square brackets hold non-standard residues; d marks the D form. Ends that are not written are not given here. BAA = bucky amino acid
# Test system: Rat maxillary incisor pulp cells (RPC-C2A)
# Assay: Cell viability assay (Live-Dead Assay Kit), cytotoxicity of fullerene peptide
# Assay type: cell-based
# Settings: 4, 40 and 400 μM peptide solutions in PBS, 100 μL mixed with 1.9 mL medium, 48 hrs incubation, Calcein AM / EthD-1
# Procedure: Rat maxillary incisor pulp cells (RPC-C2A) were seeded on a 24-well tissue culture plate at 3540 cells per well and incubated for 24 hr at 37° C. in a 5% CO2 environment. Dulbecco's Modified Eagle's Medium (DMEM; Invitrogen, NY) was prepared with 10% fetal bovine serum (FBS; BioWhitaker, Walkersville, Md.), 2 mM Amphothericin B, 1 unit/ml penicillin, and 100 mg/l streptomycin (Invitrogen, NY). Three different concentrations of Fullerene peptide solutions (4, 40, and 400 μM) were prepared in PBS and sterilized using 0.2 μm filter syringe. 100 μL of the solution was mixed with 1.9 mL of medium and added to cells. Control was also prepared by adding PBS buffer solution without peptide-modified fullerene to cells. After 48 hrs of incubation, cell viability was determined using Live-Dead Assay Kit (Molecular Probes, Inc., Eugene, Oreg.). Calcein AM is converted to a green fluorescent product within live cells due to enzymatic activity, while ethidium homodimer-1, a red fluorescent compound, accumulates in dead cells due to increased membrane permeability. After removing medium, cells were rinsed with PBS solution twice. Cells in each well was incubated with 0.4 mL of 4 μM EthD-1 and 2 μM of Calcein AM in PBS for 30 min and observed under fluorescent microscope.
# For the statistical analysis, the data were compared with two-tailed, unpaired t-tests. […]
substance,measurement,value
"BAA-Glu-Glu-Glu-Glu-Gly-Gly-Gly-Ser-COOH ([BAA]EEEEGGGS-OH) [fullerene-based peptide, peptide with a bucky amino acid (BAA) at the N-terminus]",toxicity to the cells (cell viability),no toxicity
